In patent US12497461B2, “Human NTCP-binding antibody capable of inhibiting infection of hepatitis B virus (HBV) to human hepatocytes” (priority 2019, dated 2025):

Tests used:
[1] = molecular target: T1, epitope region-containing peptide fragment (AFPPEVIGPLFFFPLLYMIFQLGEG-biotin) (Homo sapiens, UniProt Q14973); experiment: Surface plasmon resonance assay (BIAcore) of antigen binding affinity
T1 sequence (Q14973 273-297 limits assumed): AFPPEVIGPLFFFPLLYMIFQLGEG
Method: In short, a carboxymethylated dextran biosensor chip (CM5, BIAcore Inc.) was activated by N-ethyl-N′-(3-dimethylaminopropyl)-carbodiimide hydrochloride (EDC) and N-hydroxysuccinimide (NHS) in accordance with the provider's instruction. An anti-mouse IgG antibody was diluted with 10 mM sodium acetate (pH5.2) up to 30 μg/ml. The dilution was injected at a flow rate of 5 to 10 μl/minute such that the reaction unit (RU) of the protein bound became 9,000 to 14,000 RU. In contrast, an anti-human IgG antibody was diluted with 10 mM sodium acetate (pH5.0) up to 25 μg/ml. The diluted antibody was injected at a flow rate of 5 to 10 μl/minute such that the reaction unit (RU) of the protein bound became 9,000 to 14,000 RU. After injection of each of the anti IgG antibodies, 1 M ethanolamine was injected in order to block unreactive groups. For kinetic measurement, N6HB426 antibody diluted with a running buffer (HBS-P: 10 mM HEPES pH7.5, 150 mM NaCl, 0.005% NP40) up to 10 μg/ml was immobilized onto CM5 chip via the anti-mouse IgG antibody, in advance. To the chip, a solution of an epitope region-containing peptide fragment ([…]-biotin: SEQ ID NO: 24) diluted with the running buffers at different concentrations was added at 25° C. at a flow rate of 10 μl/minute for 2 minutes. In contrast, the recombinant N6HB426 human chimeric IgG4 antibody was diluted with the running buffer up to 10 μg/ml and then was immobilized onto a sensor chip (CM5) via the anti-human IgG antibody in advance. To the chip, a solution of an epitope region-containing peptide fragment diluted with the running buffers at different concentrations was added at 25° C. at a flow rate of 10 μl/minute for 2 minutes.
The refractive index of the solution varied in correlation to the mass of a chip surface changed when a peptide fragment molecule bound to N6HB426 antibody on the sensor chip, was monitored in real-time. Using simple one-to-one Langmuir binding model (BIAcore Evaluation software version 3.1) by fitting sensor grams of antigen-antibody association and dissociation at the same time, association rate (Ka) and dissociation rate (Kd) were calculated. A Kd/Ka ratio was calculated to obtain an equilibrium dissociation constant (KD).

[2] = test system: HBV (Genotype C or Genotype D); experiment: Live HBV infection of normal human hepatocytes (PXB cells), HBs antigen; settings: FIG. 2B, listed as N6HB426-20 antibody gene-derived recombinant antibody
[3] = 25° C., antibody immobilized on CM5 chip

B1: Recombinant mouse IgG2a antibody: N6HB426 variable regions connected to a constant region of mouse IgG2a antibody (antibody)
heavy: QVQLQQSGAELVKPGASVKLSCKASDFTFTEYTIHWIKQMSGQGLEWIGWFYPGSGDIKYSEKFKDKATLTADKSSSTVYMELNRLTSEDSAVYFCARHMRDFRGFYYGRFYFDYWGQGTTLTVSSAKTTAPSVYPLAPVCGGTTGSSVTLGCLVKGYFPEPVTLTWNSGSLSSGVHTFPALLQSGLYTLSSSVTVTSNTWPSQTITCNVAHPASSTKVDKKIEPRGPTIKPCPPCKCPAPNLLGGPSVFIFPPKIKDVLMISLSPIVTCVVVDVSEDDPDVQISWFVNNVEVHTAQTQTHREDYNSTLRVVSALPIQHQDWMSGKEFKCKVNNKDLPAPIERTISKPKGSVRAPQVYVLPPPEEEMTKKQVTLTCMVTDFMPEDIYVEWTNNGKTELNYKNTEPVLDSDGSYFMYSKLRVEKKNWVERNSYSCSVVHEGLHNHHTTKSFSRTPGK
light: EIVLTQSPAIMSASPGEKVTITCRASSSVSSSYLHWYQQKSGVSPKLWIYSTSNLASGVPARFSGSGSGTSYSLTINSVEAEDAATYYCQQYSGYRWTFGGGTTLEIKRADAAPTVSIFPPSSEQLTSGGASVVCFLNNFYPKDINVKWKIDGSERQNGVLNSWTDQDSKDSTYSMSSTLTLTKDEYERHNSYTCEATHKTSTSPIVKSFNRNEC
Kd [1]: ~0.1 nM
Ka (1/Ms) association rate [1, 3]: 761.7 M⁻¹ s⁻¹
Kd (1/s) dissociation rate [1, 3]: 2.39e-07 s⁻¹
inhibitory activity on infection of normal human hepatocytes with HBV [2]: comparable activity
